Experimental data: US20240026344A1

Biological target: AAV8 capsids (adeno-associated virus 8 (AAV8))
Test: BLI (ForteBio), control ligand on sensor, AAV8 capsids 5x10^11 particles/mL, response after 4000 s

Non-binding ligand (control) (designed binder)
Response: 0.03
